Data reported in paper PMC3378324.

Columns and labels:
[1] = target: Fyn(WT)-SH3, 6xHis C-terminal fusion (human) (UniProt P06241); assay: ITC
[2] = target: Fyn(R96I)-SH3, 6xHis C-terminal fusion (human) (UniProt P06241); assay: ITC
[3] = target: Nef (Human immunodeficiency virus 1) (UniProt P04324); settings: cited from earlier work

Fyn SH3 SH3, sequence (P06241 79-146): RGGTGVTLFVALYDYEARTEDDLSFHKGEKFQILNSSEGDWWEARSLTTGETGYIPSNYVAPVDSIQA
Fyn(WT)-SH3, 6xHis C-terminal fusion (human), sequence (P06241 85-141): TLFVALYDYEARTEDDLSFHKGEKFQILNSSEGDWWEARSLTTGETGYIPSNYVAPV
Fyn(R96I)-SH3, 6xHis C-terminal fusion (human), sequence (P06241 86-143 R96I): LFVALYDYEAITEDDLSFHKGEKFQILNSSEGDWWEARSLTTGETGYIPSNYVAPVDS

Substance | Kd [1] | Kd [2] | Kd [3]
ALIXPI peptide (Alix residues 737 to 760) (from UniProt Q8WUM4 737-760) | 160 µM | 54 µM | 
Fyn SH3 SH3 (from UniProt P06241) |  |  | > 20 µM
